According to paper PMC4978539:

How the values were obtained:
Assay in all cases: proximity ligation
[1] = target: HIV-1 Gag with the CA mutation G89A, expressed from a proviral point mutant (HIV-1)
[2] = target: HIV-1 Gag with the CA mutations Q7A/Q9A, expressed from a proviral point mutant (HIV-1)
[3] = target: HIV-1 Gag, wild type, expressed from the proviral clone pNL4-3 (HIV-1)
[4] = target: mCh-GagQ7A/Q9A (HIV-1)
[5] = target: mCherry-Gag (HIV-1)

Chain of Cyclophilin A (P62937 whole entry): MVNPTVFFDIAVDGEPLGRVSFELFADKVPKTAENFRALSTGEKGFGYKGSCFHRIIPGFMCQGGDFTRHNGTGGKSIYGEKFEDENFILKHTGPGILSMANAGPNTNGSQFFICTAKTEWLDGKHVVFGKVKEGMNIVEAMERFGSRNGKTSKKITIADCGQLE
Chain of Ras-GAP SH3 domain-binding protein (G3BP1), endogenous (Q13283 whole entry, the tested form may be a part): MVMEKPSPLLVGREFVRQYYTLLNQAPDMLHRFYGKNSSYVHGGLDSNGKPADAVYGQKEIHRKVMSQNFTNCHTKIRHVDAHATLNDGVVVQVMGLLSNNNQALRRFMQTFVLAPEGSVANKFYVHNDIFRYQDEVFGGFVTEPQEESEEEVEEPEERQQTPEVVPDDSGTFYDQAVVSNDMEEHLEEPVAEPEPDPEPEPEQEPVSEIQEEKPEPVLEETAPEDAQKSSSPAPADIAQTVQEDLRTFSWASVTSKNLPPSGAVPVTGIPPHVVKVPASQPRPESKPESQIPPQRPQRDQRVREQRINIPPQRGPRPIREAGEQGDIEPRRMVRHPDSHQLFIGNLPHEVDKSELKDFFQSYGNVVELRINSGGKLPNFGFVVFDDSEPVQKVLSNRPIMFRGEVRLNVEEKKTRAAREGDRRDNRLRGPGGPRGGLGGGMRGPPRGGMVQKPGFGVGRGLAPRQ

Substance	PLA spots/cell [1] [spots/cell]	PLA spots/cell [2] [spots/cell]	PLA spots/cell [3] [spots/cell]	PLA spots/cell [4] [spots/cell]	PLA spots/cell [5] [spots/cell]
Cyclophilin A (from UniProt P62937 1-165) (natural protein)	18.7	27.4	60.3	–	–
Ras-GAP SH3 domain-binding protein (G3BP1), endogenous (from UniProt Q13283 1-466) (natural protein)	–	–	–	33.8	107
eukaryotic elongation factor 2, endogenous (from UniProt P13639 1-858) (natural protein)	3.44	5.1	11.6	–	–
